The record followed here is patent US20130230533A1 (Regeneron, published 2013).

Sequences and labels used below:
T1: Dimeric human CD48-mFc (human)
T1 chain: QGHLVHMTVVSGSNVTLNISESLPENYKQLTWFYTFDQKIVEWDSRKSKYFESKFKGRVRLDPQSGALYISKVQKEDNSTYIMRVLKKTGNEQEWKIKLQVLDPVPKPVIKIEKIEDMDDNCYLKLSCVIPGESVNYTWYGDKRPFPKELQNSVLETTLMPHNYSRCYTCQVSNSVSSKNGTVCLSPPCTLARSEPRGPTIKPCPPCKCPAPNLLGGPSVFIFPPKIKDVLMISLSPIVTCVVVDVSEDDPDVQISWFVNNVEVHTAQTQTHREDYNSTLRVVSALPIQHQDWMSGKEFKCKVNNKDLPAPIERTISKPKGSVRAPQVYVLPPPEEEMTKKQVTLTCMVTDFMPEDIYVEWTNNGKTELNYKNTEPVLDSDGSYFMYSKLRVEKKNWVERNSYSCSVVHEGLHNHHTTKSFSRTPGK

T2: Monomeric human CD48-mmH (human)
T2 construct: also called soluble CD48 expressed with a myc-myc-hexa-histidine C-terminal tag [mmH]
T2 chain: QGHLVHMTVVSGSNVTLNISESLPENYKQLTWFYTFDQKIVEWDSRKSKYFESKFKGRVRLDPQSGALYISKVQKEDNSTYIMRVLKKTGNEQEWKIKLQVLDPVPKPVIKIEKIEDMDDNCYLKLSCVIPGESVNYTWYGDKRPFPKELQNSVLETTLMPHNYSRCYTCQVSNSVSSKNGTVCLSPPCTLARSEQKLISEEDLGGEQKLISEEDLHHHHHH

B1: H3M1766N (antibody, V domains shown)
VH: EVQLVESGGGLAQPGGSLRLSCAASGFTFSSYEMNWVRQAPGKGLEWVSYITTSGSTIYYADSVKGRFTMSRDNAKKSLYLEMNSLRAEDTAVYYCAREECTNGVCYKDYQYYGMDVWGQGTTVTVSS
VL: DIQMTQSPSSVSASVGDRVTITCRASQNINTWLAWYQQKPGKVPKLLIYAASSLQSGVPSRFSGSGSGTDFTLTISSLQPEDFATYYCQQANSFPLTFGGGTKVEIK
notes: also called H2M1766N
B2: H4H1770P (antibody, human IgG4, V domains shown)
VH: QVQLVQSGAEVKKPGAAVKVSCKASGYTFTAYGISWVRQAPGQGLEWMGWISAYDGDTNNAQKFQGRVTMTTDTSSSTAYMELRSLGSDDTAVYYCARDRYSSSSGYFDYWGQGTLVTVSS
VL: B1 VL with N28D, N30S, T31S, Y36S, V43A, L46A, L96Y, G100Q, V104L
notes: Human IgG4 Fc (prefix H4H)
B3: H4H1778P (antibody, human IgG4, V domains shown)
VH: QVQLVESGGGVVQPGRSLRLSCAASGFTFSNYGMHWVRQAPGKGLEWVAVIWYDESSKYYTDSVKGRFTISRDNSQNTLYLQMTSLRAEDTAVYYCARDRWTYSHYFEYWGQGTLVTVSS
VL: B1 VL with N28G, N30S, T31S, L33V, V43A, L96R, G100Q
notes: Human IgG4 Fc (prefix H4H)
B4: H4H1781P (antibody, human IgG4, V domains shown)
VH: B3 VH with E55D, S57N, Y59N, T61A, Q76K, T84N, A88V, Y106F
VL: B1 VL with N28G, N30S, T31S, V43A, K45N, S63G, T72S, S77G, L96R, G100Q
notes: Human IgG4 Fc (prefix H4H)
B5: H4H1774P (antibody, human IgG4, V domains shown)
VH: B3 VH
VL: B1 VL with N28G, N30S, T31S, L33V, V43A, L96R, G100Q
notes: Human IgG4 Fc (prefix H4H)
B6: H4H1775P (antibody, human IgG4, V domains shown)
VH: B3 VH with S57G, Y59H, T61A
VL: B1 VL with N28D, N30S, T31S, L33V, V43A, L96R, G100Q
notes: Human IgG4 Fc (prefix H4H)
B7: H4H1779P (antibody, human IgG4, V domains shown)
VH: B3 VH with Y59H, T61A
VL: B1 VL with N28D, N30S, T31S, L33V, V43A, L96R, G100Q
notes: Human IgG4 Fc (prefix H4H)
B8: H4H1772P (antibody, human IgG4, V domains shown)
VH: EVQLVESGGGLVQPGGSLRLSCAASGFTFSSYWMSWVRQAPGKGLEWVANIMRDGSEKYYVDSVKGRFTISRDNAKNSLYLQMNSLRGEDTAVYYCARERGFYTNYGNWFDPWGQGTLVTVSS
VL: DIVMTQSPLSLTVTPGESASISCRSSQSLLHSYGYNSLDWYLQKPGQSPQFLIYLVSNRASGVPDRFSGSGSGTDFTLKISRVEAEDVGVYYCMQVLQTPYTFGQGTKLEIK
notes: Human IgG4 Fc (prefix H4H)
B9: H4H1771P (antibody, human IgG4, V domains shown)
VH: QVQLVQSGTEVKKPGASVKVSCKVSGYTLIDLSIHWVRQAPGEGLEWMGGFDPEESETIYAQKFQGRVTMTEDTSTDTAYMELSSLRSEDTAVYYCVTEPIFGILIHESWGQGTLVTVSS
VL: DIVMTQTPLSSPVTLGQPASISCRSSHSPVHSNGHTYLSWLQQRPGQPPRILIYKISRRFSGVPDRFSGSGAGTDFTLKISRVETEDVGIYYCMQASQFPWTFGQGTKVEIK
notes: Human IgG4 Fc (prefix H4H)
B10: H4H1789Pa (antibody, V domains shown)
VH: EVQLLESGGGLVHPGGSLRLSCAASGFTFGGYAMSWVRQAPGKGLEWVSLISGSGGSTYYADSVKGRFTIFRDNSKNTLYLQMISLRAEDSAVYYCAKYSNYDYFDPWGQGTLVTVSS
VL: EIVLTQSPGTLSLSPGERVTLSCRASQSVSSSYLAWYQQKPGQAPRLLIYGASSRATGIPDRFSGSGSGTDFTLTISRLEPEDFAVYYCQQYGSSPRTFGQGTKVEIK
notes: Human IgG4 Fc (prefix H4H)
B11: H2M1707N (antibody, mouse IgG2, V domains shown)
VH: EGQLLESGGGLAQPGGSLRLSCAASGITFGRYAMSWVRQAPGKGLEWVSLISGSGGSTYHADSVKGRFTISRDNSKNTLYLQMNSLRAEDTAVYYCAIYNNYNWFDPWGQGTLVTVSS
VL: EIVLTQSPGTLSLSPGERATLSCRASQSVSSNYLAWYQQKPGQAPRLLIYDASSRATDIPDRFSGSGSGTDFTLTISRLEPEDFAVYYCQQYGSSPRTFGQGTKVEIK
B12: H4H1707N (antibody, human IgG4, V domains shown)
VH: B11 VH
VL: B11 VL
notes: Human IgG4 Fc (prefix H4H)
B13: H2M1709N (antibody, mouse IgG2, V domains shown)
VH: QVQLVQSGAEVKKPGASVKVSCKVSGYTLTELSIHWVRQAPGKGLEWMGGFDPEDGETIYAQKFQGRVNMTEDTSTDTAYMELSSLRSDDTTVYFCASLLPYFDYWGQGTLVTVSS
VL: B11 VL with N32S, D51G, D58G, T75S, Y88F, P96M, R97Y, V105L
notes: Human variable domains, mouse IgG2 Fc (prefix H2M)

Numbering of substitutions follows the chain as printed. Names and notes keep the numbering of the source.

For the first assay, the target named is T1, Dimeric human CD48-mFc. Kind of assay: SPR (Biacore T100), 25 C, antibody captured by anti-Fc, dimeric CD48-mFc in solution. The procedure:
(§1) Measurements were conducted on a T100-2 BIACORE™ instrument (Biacore Life Sciences division of GE Healthcare, Piscataway, N.J.). Antibodies (either with mouse Fc [designated “H2M” or “H3M”] or human IgG4 Fc [designated “H4H”]) were captured through an anti-Fc chip surface, and CD48 was flowed over the surface either in a monomeric (soluble CD48 expressed with a myc-myc-hexa-histidine C-terminal tag [mmH]) or dimeric (soluble CD48 expressed with a C-terminal Fc fusion [mFc]) format.
(§2) The soluble CD48 was applied to the flow cell in separate injections at different concentrations, and kinetic association (kₐ) and dissociation (kd) rate constants were determined by fits to the kinetic binding data using Biacore software. Binding dissociation equilibrium constants and dissociation half-times were calculated from the kinetic rate constants as: KD=kd/kₐ; t_{1/2}=(ln 2/kd) (units: ka=M⁻¹*s⁻¹; kd=s⁻¹; KD=M; T½=min) (Tables 3-6).
(In SPR one partner is held on a chip, and binding of the other changes the refractive index at the surface.)
Usually Kd stands for the concentration at which binding is half-saturated. As a reminder, the koff is a measure of how fast the partners let go of each other. One may read the kon as the rate constant with which the complex forms. Read a high kon as faster complex formation. With B1, the Kd amounted to 0.51 nM, the T½ was found to be 2.93 h, the koff was 6.57e-05 s⁻¹ and the kon stood at 129000 M⁻¹ s⁻¹.

In turn, B2 had a Kd of 0.00325 nM, a T½ of 34.7 h, a koff of 5.54e-06 s⁻¹ and a kon of 1.71e+06 M⁻¹ s⁻¹.

B3 returned a Kd of 0.0304 nM, a T½ of 21.5 h, a koff of 8.95e-06 s⁻¹ and a kon of 294000 M⁻¹ s⁻¹.

In turn, B4 came in with a Kd of 0.0144 nM, a T½ of 15.7 h, a koff of 1.23e-05 s⁻¹ and a kon of 854000 M⁻¹ s⁻¹.

As for B5, the Kd was 0.0149 nM, the T½ was 41.4 h, the koff worked out at 4.65e-06 s⁻¹ and the kon was determined as 311000 M⁻¹ s⁻¹.

B6 returned a Kd of 0.0179 nM, a T½ of 14.7 h, a koff of 1.31e-05 s⁻¹ and an on-rate constant (kon) of 734000 M⁻¹ s⁻¹.

Take B7: the dissociation constant Kd came out at 0.0151 nM, the T½ is 16.5 h, the koff was found to be 1.17e-05 s⁻¹ and the kon was determined as 774000 M⁻¹ s⁻¹.

As for B8, the affinity, expressed as Kd, was 0.0344 nM; the T½ worked out at 14.9 h; the koff came out at 1.29e-05 s⁻¹; the kon was determined as 376000 M⁻¹ s⁻¹.

B9: the affinity, expressed as Kd, was 0.00736 nM; the T½ was 12.7 h; the koff was determined as 1.52e-05 s⁻¹; the kon came out at 2.07e+06 M⁻¹ s⁻¹.

B10 displayed a Kd of 0.0958 nM, a T½ of 5.25 h, a koff of 3.66e-05 s⁻¹ and a kon of 382000 M⁻¹ s⁻¹.

On to B11, for which the affinity, expressed as Kd, was 0.0923 nM; the T½ came out at 2.92 h; the koff stood at 6.59e-05 s⁻¹; the kon was found to be 714000 M⁻¹ s⁻¹.

In turn, B12 returned a Kd of 0.0736 nM, a T½ of 6.8 h, an off-rate (koff) of 2.83e-05 s⁻¹ and a kon of 385000 M⁻¹ s⁻¹.

The molecule B13 displayed a Kd of 0.311 nM, a T½ of 0.667 h, a koff of 0.000288 s⁻¹ and a kon of 928000 M⁻¹ s⁻¹.

The target of the next assay is T2, Monomeric human CD48-mmH. The assay is described as follows: SPR (Biacore T100), 25 C, antibody captured by anti-Fc, monomeric CD48-mmH in solution. The procedure: as §1, §2
Regarding B1, the affinity, expressed as Kd, was 2.79 nM; the T½ was 1.08 h; the koff was determined as 0.000177 s⁻¹; the association rate constant (kon) was determined as 63400 M⁻¹ s⁻¹.

On to B2, for which binding was characterised by a dissociation constant (Kd) of 0.259 nM, the T½ was 1.27 h, the koff came out at 0.000153 s⁻¹ and the kon was determined as 589000 M⁻¹ s⁻¹.

Take B3: the Kd was determined as 0.476 nM, the T½ turned out to be 4.1 h, the koff came to 4.69e-05 s⁻¹ and the kon was 98600 M⁻¹ s⁻¹.

B4 had a Kd of 0.194 nM, a T½ of 5.85 h, an off-rate (koff) of 3.3e-05 s⁻¹ and a kon of 170000 M⁻¹ s⁻¹.

B5: binding was put at a Kd of 0.454 nM, the T½ came to 4.08 h, the koff came out at 4.72e-05 s⁻¹ and the kon came out at 104000 M⁻¹ s⁻¹.

Take B6: binding was characterised by a dissociation constant (Kd) of 0.34 nM, the T½ worked out at 3.92 h, the koff came out at 4.92e-05 s⁻¹ and the kon stood at 145000 M⁻¹ s⁻¹.

Molecule B7 had a Kd of 0.246 nM, a T½ of 4.93 h, a koff of 3.9e-05 s⁻¹ and a kon of 158000 M⁻¹ s⁻¹.

Regarding B8, binding was put at a Kd of 1.38 nM, the T½ worked out at 1.1 h, the koff is 0.000176 s⁻¹ and the kon stood at 127000 M⁻¹ s⁻¹.

Molecule B9 had a Kd of 0.26 nM, a T½ of 0.917 h, a koff of 0.000209 s⁻¹ and a kon of 805000 M⁻¹ s⁻¹.

As to B10, the Kd turned out to be 3.2 nM, the T½ is 0.417 h, the koff was found to be 0.000458 s⁻¹ and the kon was found to be 143000 M⁻¹ s⁻¹.

As for B11, the Kd was 4.92 nM, the T½ amounted to 0.3 h, the off-rate constant (koff) amounted to 0.000642 s⁻¹ and the association rate constant (kon) stood at 131000 M⁻¹ s⁻¹.

With B12, binding was put at a Kd of 3.57 nM, the T½ was found to be 0.317 h, the koff came to 0.000601 s⁻¹ and the kon is 168000 M⁻¹ s⁻¹.

In turn, B13 had a Kd of 19.8 nM, a T½ of 0.0333 h, a koff of 0.0058 s⁻¹ and a kon of 292000 M⁻¹ s⁻¹.
